Measured values from the nanobody polyreactivity screen of Harvey et al. (2022).

Assay: yeast display, Sf9 membrane polyspecificity reagent, FACS + sequencing; frameworks hold sequencing errors
Procedure, shortened: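 Polyreactivity labels are assigned by the sorting gate from which each nanobody was recovered. The gates were low and high (top ~1%), set on anti-HA fluorescence for expression and streptavidin fluorescence for reagent binding. Before sorting, galactose-induced (36–48 hours) yeast display cells were stained for 1 hour at 4 °C with 10% biotinylated, detergent-solubilized Sf9 membrane reagent.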

| Sequence | polyreactivity (PSR sort gate) |
| --- | --- |
| QVQLVESGGGLVQAGGSLRLSCAASGFTFYLYTMGWYRQAPGKERELVAAISWRGGGTYYADSVKGRFTISRDNAKNTVYLQMNSLKPEDTAVYYCAAYWRRRLDYYYWGQGTQVTVSS | high polyreactivity |
| QVQLVESGGGLVQAGGSLRLSCAASGSTFTLYAMGWYRQAPGKERELVAAISGIGDSTYYADSVKGRFTISRDYAKNNVYLQKNSLKPEDTAVYYCAADGEYRYDWEYESWGQGTHVTVSS | low polyreactivity |
| QVQLVESGGGLVQAGGSLRLSCAASGRILFGYAMGWYRQAPGKERELVADITSTGSTNYADSVKGRFTISRDNAKNTVYLQMNSLKPEDTAVYYCNARRESYYQRYRVDYWGQGTQVTVSS | low polyreactivity |
| QDQLVESGGGLVQARGSLRLSCASSGSICDHYVMGWYRQAPGKERELVAAITSGDRTNYADSVKGRFTISRDKAKNTVYLQMNSLTPEDTEGYYCNADYQSYFYYTTWYYDYDYWGKGTQVTVSS | low polyreactivity |
| QVQLVESGGGLVQAGGSLRLSCAASGSTFSIYARGWYRPAPGKERELVAAISYSDGTTYSADSVKGRFTISRDNAKNTDYVQMNSLKPEDTAVYYCATQQIWTSWYDRFDYWGQGTQVTVSS | low polyreactivity |
| QVQLVESGGGLVQAGGSLRLSCAASGRIFRKYAMGWYRQAPGKERELVAAISGSGGSTTYADSVKGRFTISRDNAKNTVYLQMNSLKPEDTAVYYCAARGYSLYGYPYYYWGQGTQVSVSS | high polyreactivity |
| QVQLVESGGGLVQAGGSLRLSCAASARTFYRYAMGWYRQAPGKERELVAAITRRSGNTYYADSVKGRFTISRDNAKNTVYLQMNSLKPEDTAVYYFNTVYPRRLIFGYWGQGTQVTVSS | high polyreactivity |
| HVQLVESGGGLVQAGGSLRLSCAASGSTLYSYAMGWYRQAPGKARELVAAISIGDSTNYADSVKGRFTISRDNAKNTVYLQMNSLKPEDTAVYYCNADRALGYYVVVFIFEYWGQGTQVTVSS | low polyreactivity |
| QVQLVESGGGLVQAGGSLRLSCAASGFTIQPYTMGWYRQATGKERELVAAISKSGGSTYYADSVKGRFTISRDNAKNTVYLQMHSLKPEDTAVYYCAAVGWWGTSDYWGQGTQVTVSS | high polyreactivity |
| QDQLVESGGGLVQAGGSLSLSCAASGRIFYWYVIGWYRQAPGKEREYVASISWSGGSTYYADSVKGRFTISRDNAKNTVYLQMNSLKPEDTAVYYCNAGSVYTVSLTGHPYDYWGQGTQVTVSS | low polyreactivity |
| QVQIVESGGGLVQPGCSLRLSCAASGRIFYVYAMGWYRQAPGTEWELVASITNGGRTNYADSVKGRFTISRDNAKNTFYLQMNSLKPEDTAVYYCATAASNYLDYVGKYRYDYWVQGTQVTVSS | low polyreactivity |
| QVQLVESGGGLVQAGGSLRLSCAASGSTLLSNAMGWYTQAPGKERELVAAINYSGGRTYYADSVKGRFTISRDNAKNTVYLQMNSLKPEDTAVYYCNALSSGHGSSSRYDYWGQGTQVTVSS | low polyreactivity |
| QEQLLESGGALVQAGGSLRLSCMASGSILGDRMSWYRQAPGKEHELVATIYDGGITYYADSMKGRFTISRDNAKNTVYLQMNSLRPEDTAVYYCGASFEGYRYHVYCGQGTQVTVSS | low polyreactivity |
| QVQLVESGGGLVQAGGSLRLICAASGRIWVNAMGWYIQAPGKQREFVAAISTSSASTYYADSVKGRFTISRDNAKNTVYLQMNSLKPEDTAVYYCAARYLGKKYYYWGQGTQVTVSS | high polyreactivity |
| QVQLVESGGGLVQAGGSLRLSCAASGRTFWGYVMGWYRQAPGKERELVAAISRGDSTYYADSVKGRFTISRDNAKNTVYLQMNSLKPEDTAVYYCAKPGYYVRYGYWGQGTQVTVSS | high polyreactivity |
| QVQLEESGGGLVQAGGRLRISCAASGRTFLCYAMGWSRQAPGKERELLAAISKSGGSTYYADSVKGRFTISRDNAKNTVYLQMNSLKPQDTAVYYCAVEVDVYTFSEFYYWGQGTQVTVSS | high polyreactivity |
| QVQHVESGGCLDQAGGSLRLSCAASGIFRTNARGWYRTAPGKERELVAGISSGGGTNYADSVKGRFTISRDNAKNTVYLQMNSLKPEDTAVYSCAKERIYFYYWYVYSDLVYEYDYCGQGTQVTVSS | low polyreactivity |
| QVQLVESGGGLVQAGGSLRLSCAASGSIFVPYAMGWYRQAPGKERELVAAISSRGGRTYYADSVKGRFTISRDNPKNTVYLQMNSLKPEDTAVYYCNKTAGSHIPRLEYWGQGTQVTVSS | low polyreactivity |
| QVQLVESGGGLVQAGGSLRLSCAASGFTFRQNAMGWYIQAPGKERELVAAISRGGGGTHYADSVKGRFTISRDNAKNNVYLHMNSLKPEDTAVYYCAKRRYPTFVVPVYYWGQGTQVTVSS | high polyreactivity |
| QVQIVESGGGLVQAGGSLRLICAASGSIFFYYAMGWYRQAPGKEWELVAAITFTGGSTYYADSVKGSFTISRDNAKNTVYLQMTSLKPEDTAVYYCAADWYYGFEYEYRGQGTQVTVSS | high polyreactivity |
| QVQLVESGGGLVQAGGSLRLSCAASGSTFYLNAMGWYRQAPGKERELVAAINGSGGSTYADSVKGRFTISRDNAKNTVYLQMNSLKPEDTAVYYCAADGTGYPGYSYPGNDYDYWGQGTQVTVSS | low polyreactivity |
| QVQLVESGGGLVQARGSLRLSSAATGLIILAYAMGWYRQAPGKERELVAAISTSGSTYYADSVKGRFTISRDNAKNTVYLQMNSLKPEDTAVYYCAAYYRWSVTYYDWGQGTQGTVSS | high polyreactivity |
